Here are results for one molecule from PMC3644067 (Nature Communications, 2013).

This assay addresses T1, α4 (3–233) E206R (human, UniProt P78318 3-233, E206R).
T1 sequence (looked up): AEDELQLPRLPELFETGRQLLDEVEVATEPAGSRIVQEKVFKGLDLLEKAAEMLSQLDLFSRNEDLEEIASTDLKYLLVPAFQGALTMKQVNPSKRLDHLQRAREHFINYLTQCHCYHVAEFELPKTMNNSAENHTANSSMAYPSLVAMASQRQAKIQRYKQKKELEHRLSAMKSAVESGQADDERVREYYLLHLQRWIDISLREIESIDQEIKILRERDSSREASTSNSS
Kind of assay: pull-down.

B1: GST-tagged nPP2Ac (1–153) (domain or fragment, human, UniProt P67775 1-153, looked up)
chain: MDEKVFTKELDQWIEQLNECKQLSESQVKSLCEKAKEILTKESNVQEVRCPVTVCGDVHGQFHDLMELFRIGGKSPDTNYLFMGDYVDRGYYSVETVTLLVALKVRYRERITILRGNHESRQITQVYGFYDECLRKYGNANVWKYFTDLFDYL
With B1, the binding result is recorded as “binds”.
